Test results taken from patent publication US20260193356A1.

Assays:
[1] = biological target: dog (Canis lupus) PDL1 (dPDL1) expressed on CHO-S cells (CHO-S-dPDL1) (dog (Canis lupus)); assay: flow cytometry on CHO-S-dPDL1 cells; antibody 0.1 µg/mL
[2] = biological target: dog (Canis lupus) PDL1 (dPDL1) expressed on CHO-S cells (CHO-S-dPDL1) (dog (Canis lupus)); assay: flow cytometry on CHO-S-dPDL1 cells; antibody 1 µg/mL

dog (Canis lupus) PDL1 (dPDL1) expressed on CHO-S cells (CHO-S-dPDL1) (dog (Canis lupus)), sequence (chain, as listed by the source limits assumed, form in doubt): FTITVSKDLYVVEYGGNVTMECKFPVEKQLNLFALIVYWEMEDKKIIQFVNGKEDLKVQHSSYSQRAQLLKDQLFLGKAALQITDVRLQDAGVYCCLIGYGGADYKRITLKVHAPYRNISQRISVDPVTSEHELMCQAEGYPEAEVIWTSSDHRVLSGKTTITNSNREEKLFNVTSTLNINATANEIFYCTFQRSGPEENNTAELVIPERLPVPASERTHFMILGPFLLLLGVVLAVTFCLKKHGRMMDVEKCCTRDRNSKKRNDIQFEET

B1: B22E02-N297A (antibody, human IgG1, V domains shown)
VH: QVQLVQSGGGLVQPGRSLRLSCRASGFTFDGYSMNWVRQAPGKGLEWVGFIRSKGYGGTSESAASVKGRFTISRDDSKSIAYLQMNSLKTEDTAVYYCTRTRNWNDEGYFDYWGLGTLVTVSS
VL: DIQMTQSPSSLSASVGDRVTITCQASQDINKYLNWYQQKPGKAPKLLIYDASNSETGVPSRFSGSGSGTDFTFTISSLQPEDISTYYCQQYDILPITFGQGTRLEIK
- Percentage of Positive Cells (%) [1]: 51%
- Percentage of Positive Cells (%) [2]: 67.8%

B2: B21A06-N297A (antibody, human IgG1, V domains shown)
VH: QVQLQESGGDVVQPGRSLRLSCAASGFTFNNYGMHWVRQAPSKGLEWVAFIWYDGSNKYYGDSVKGRFTISRDNSKNTLYLQMNSLRAEDTALYYCARGDNWNSDAFDIWGPGTMVTVSS
VL: EIVMTQSPLSLPVTLGQPASISCRSSQSLVYTNGNTYLNWFQQRPGQSPRRLIYKVSSRDSGVPDRFSGSGSGTDFTLKISRVAAEDVGLYYCMQGTHWPLTFGGGTKVEIK
- Percentage of Positive Cells (%) [1]: 50.5%
- Percentage of Positive Cells (%) [2]: 62.5%

B3: B20B02-N297A (antibody, human IgG1, V domains shown)
VH: QVQLQQSGGGVVQPGRSLRLSCAASGFTFSTYGMHWVRQAPGKGLEWVAALSFDGGNIYYGDSVKGRFTISRDNSKNTLYLQMNSLRAEDTALYYCAKARLPYSYDAVDYWGQGTLVTVSS
VL: EIVMTQSPATLSVSPGERATLSCRASQSVSSNLAWYQQKPGQAPRLLIYDTSTRAIGIPARFSGSGSGTEFTLTISSLQSEDFAIYYCHQYNFWPPITLGQGTRLEIK
- Percentage of Positive Cells (%) [1]: 53.1%
- Percentage of Positive Cells (%) [2]: 70.7%
